Experimental data reported in publication doi:10.1101/2023.12.19.572309 (bioRxiv, 2023).

Biological target: ATG16L1-(StrepII^2x)ATG5–ATG12 complex (UniProt Q676U5;Q9H1Y0;O94817)
Assay: BLI

Chain of ATG16L1-(StrepII^2x)ATG5–ATG12 complex (Q676U5 whole entry, chain 1 of 3): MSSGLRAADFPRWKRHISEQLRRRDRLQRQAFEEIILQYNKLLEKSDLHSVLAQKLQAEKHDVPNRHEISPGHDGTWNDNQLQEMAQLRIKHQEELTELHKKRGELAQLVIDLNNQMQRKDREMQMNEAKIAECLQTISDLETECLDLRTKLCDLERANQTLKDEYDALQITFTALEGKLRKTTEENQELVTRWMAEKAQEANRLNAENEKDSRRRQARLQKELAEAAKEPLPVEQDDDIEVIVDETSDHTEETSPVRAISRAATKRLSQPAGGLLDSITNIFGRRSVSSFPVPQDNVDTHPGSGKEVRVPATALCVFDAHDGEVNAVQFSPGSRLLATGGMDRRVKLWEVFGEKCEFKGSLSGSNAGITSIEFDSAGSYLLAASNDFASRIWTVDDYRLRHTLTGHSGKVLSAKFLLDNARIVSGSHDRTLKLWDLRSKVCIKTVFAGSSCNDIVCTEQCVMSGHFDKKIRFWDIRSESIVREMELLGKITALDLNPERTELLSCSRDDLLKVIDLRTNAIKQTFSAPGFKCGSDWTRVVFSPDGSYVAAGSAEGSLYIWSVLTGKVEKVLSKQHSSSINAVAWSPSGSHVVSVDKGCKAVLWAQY
Chain of ATG16L1-(StrepII^2x)ATG5–ATG12 complex (Q9H1Y0 whole entry, chain 2 of 3): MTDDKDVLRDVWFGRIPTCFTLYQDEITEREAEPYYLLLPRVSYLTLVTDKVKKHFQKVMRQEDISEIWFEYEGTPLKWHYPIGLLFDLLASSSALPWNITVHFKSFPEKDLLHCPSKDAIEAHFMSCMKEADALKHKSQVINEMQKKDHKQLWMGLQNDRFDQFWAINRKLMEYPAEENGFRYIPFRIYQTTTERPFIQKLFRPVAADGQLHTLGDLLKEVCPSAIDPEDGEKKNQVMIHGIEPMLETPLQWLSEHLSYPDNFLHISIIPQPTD
Chain of ATG16L1-(StrepII^2x)ATG5–ATG12 complex (O94817 whole entry, chain 3 of 3): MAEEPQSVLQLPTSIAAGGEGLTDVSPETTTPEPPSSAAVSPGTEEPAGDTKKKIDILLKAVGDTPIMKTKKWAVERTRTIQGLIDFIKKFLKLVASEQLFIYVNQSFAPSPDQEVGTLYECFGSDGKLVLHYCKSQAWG

B1: 6xHis-3xFLAG-V1H(1-351) (domain or fragment)
chain: MTKMDIRGAVDAAVPTNIIAAKAAEVRANKVNWQSYLQGQMISAEDCEFIQRFEMKRSPEEKQEMLQTEGSQCAKTFINLMTHICKEQTVQYILTMVDDMLQENHQRVSIFFDYARCSKNTAWPYFLPMLNRQDPFTVHMAARIIAKLAAWGKELMEGSDLNYYFNWIKTQLSSQKLRGSGVAVETGTVSSSDSSQYVQCVAGCLQLMLRVNEYRFAWVEADGVNCIMGVLSNKCGFQLQYQMIFSIWLLAFSPQMCEHLRRYNIIPVLSDILQESVKEKVTRIILAAFRNFLEKSTERETRQEYALAMIQCKVLKQLENLEQQKYDDEDISEDIKFLLEKLGESVQDLSS
Kd: 9.2 µM
